A short description of data set [1]: Toxicokinetics of free MMAE in serum (Hybrid LBA LC-MS/MS). The note with it: BALB/c mice, Nectin4A14-DL01-MMAE 136 mg/kg vs EV 100 mg/kg. Type of data set: in vivo. The protocol:
(§1) Test 1: 18 BALB/c mice, female, with body weights of 16 to 19 g at the time of grouping, were divided into a PR-ADC group (CDCP1A9-DL01-MMAE, 140 mg/kg) and a conventional ADC group (CDCP1A6-DL01-MMAE, 100 mg/kg), both at equimolar doses, with 9 mice in each group (5 for toxicology + 4 for toxicokinetic (TK)), for a total of 2 groups. A single dose was administered, with a dosing volume of 10 mL/kg. The drug-related toxic effects in BALB/c mice for each group were investigated and compared through aspects such as death, clinical observation, body weight, and toxicokinetic detection. The experiment lasted for 14 days.
Free MMAE was determined using a Hybrid LBA LC-MS/MS method. Protein A/G-Beads were used to separate the ADC/PR-ADC, MMAE-bound PR-ADC, and MMAE-bound anti-MMAE antibodies from the serum. The remaining samples were subjected to protein precipitation and then tested for free MMAE using the LC-MS/MS method. Table 34. Toxicity test results of animals in each group
(§2) Test 2: 16 BALB/c mice, female, with body weights of 16 to 20 g at the time of grouping, were divided into PR-ADC group (CDCP1A12-DL01-MMAE, 134 mg/kg) and conventional ADC group (CDCP1A6-DL01-MMAE, 100 mg/kg) dose group, both at equimolar doses, with 8 mice in each group (4 for toxicology + 4 for TK), for a total of 2 groups. A single dose was administered, with a dosing volume of 10 mL/kg. The drug-related toxic effects in BALB/c mice for each group were investigated and compared through aspects such as death, clinical observation, body weight, and toxicokinetic detection. The experiment lasted for 14 days.
Free MMAE was also determined using the Hybrid LBALC-MS/MS method. Table 36. Toxicity test results of animals in each group
(§3) 18 BALB/c mice, female, with body weights of 16 to 19 g at the time of grouping, were divided into a PR-ADC group (Nectin4A14-DL01-MMAE, 136 mg/kg) and a conventional ADC group (EV, 100 mg/kg), both at equimolar doses, with 9 mice in each group (5 for toxicology + 4 for TK), for a total of 2 groups.
Free MMAE was also determined using the Hybrid LBA LC-MS/MS method. Table 38. […]

The next data set has as its system HCC1954. Briefly: Cell killing activity. Type of data set: cell-based.
Data set [2] can be described thus: Comparative study of toxicity in BALB/c mice. It is filed as in vivo. The protocol:
as §1, §2, §3

The subject of a further data set is CHOK1. Briefly: Cell killing activity. It is filed as cell-based.
The subject of data set [3] is human bladder cancer cell HT-1376 subcutaneous xenograft. Briefly: Efficacy in subcutaneous xenograft model. Type of data set: in vivo, BALB/c-nu mice. Particulars: equimolar doses. The protocol: Human bladder cancer cells HT-1376 were expanded and cultured, and then subcutaneously inoculated into the right forelimb axilla near the back of BALB/c-nu mice (GemPharmatech, female). Tumor growth was observed. When the tumor volume reached about 90 to 200 mm^3, the mice were randomized into groups based on tumor volume and administered with drugs.
The day of administration was designated as D0. During the experiment, tumor long diameter, short diameter, and body weight were measured twice a week, accompanied by observation of clinical symptoms. At the endpoint of the experiment, the experimental mice were euthanized.

The target in a further data set is T1, Nectin-4 (Homo sapiens, UniProt Q96NY8).
T1 sequence (Q96NY8 32-510): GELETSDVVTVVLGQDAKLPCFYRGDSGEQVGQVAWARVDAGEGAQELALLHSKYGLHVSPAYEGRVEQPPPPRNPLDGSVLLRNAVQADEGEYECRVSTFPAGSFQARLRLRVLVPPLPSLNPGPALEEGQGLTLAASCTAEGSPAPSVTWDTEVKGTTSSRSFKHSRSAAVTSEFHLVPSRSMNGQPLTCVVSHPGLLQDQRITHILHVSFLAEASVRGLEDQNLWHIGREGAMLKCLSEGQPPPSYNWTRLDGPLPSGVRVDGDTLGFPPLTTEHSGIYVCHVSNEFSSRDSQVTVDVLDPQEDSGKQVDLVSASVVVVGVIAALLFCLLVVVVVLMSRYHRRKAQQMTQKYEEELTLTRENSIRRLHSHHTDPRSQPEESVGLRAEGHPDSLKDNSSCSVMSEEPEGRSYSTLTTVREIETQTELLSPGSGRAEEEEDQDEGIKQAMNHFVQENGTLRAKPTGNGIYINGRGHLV
The data set can be described thus: Binding activity with Nectin-4.

The subject of a further data set is OVCAR3. Briefly: Cell killing activity. Type of data set: cell-based.

With Enfortumab vedotin [EV], in data set [1], the “Free MMAE AUC” value came to 9.09097 ± 0.65517 µM·h, the “Free MMAE Cmax” value is 76.08 ± 4.88 nM and the “Free MMAE Tmax” value is on record as 24 h. Also, in the data set with HCC1954, it took 148 nM to reach half-maximal inhibition (IC50) and the “MIR (%)” value is recorded as 70.90%. Also, the “Clinical Observation” value in data set [2] (Nectin4A14-DL01-MMAE 136 mg/kg vs EV 100 mg/kg) was “Piloerection (4/4), Hunched posture (5/5), Squinting eyes (5/5), Lethargy (1/5)”. The Death in data set [2] (Nectin4A14-DL01-MMAE 136 mg/kg vs EV 100 mg/kg (equimolar)) is on record as 2/9. Moreover, the “Max Body Weight Change Rate” value in data set [2] (Nectin4A14-DL01-MMAE 136 mg/kg vs EV 100 mg/kg, day in brackets in the cell) was -24.4% (D7). For the same substance, the tolerance entry in data set [2] (Nectin-4 comparison) is recorded as “less than 100 mg/kg”. The “MIR (%)” value in the data set on CHOK1 came to 17.40%. The substance further returned an inhibition of tumour growth (TGI) in data set [3] of 71%. Also, the “Top OD450” value with Nectin-4 amounted to 1.23. In the data set on OVCAR3, the IC50 turned out to be 33.3 nM and the “MIR (%)” value turned out to be 60.27%.

The record behind these values is patent publication EP4725508A1, “LIGAND-DRUG CONJUGATE HAVING FREE PAYLOAD RECOVERY UNIT” (RemeGen Co., Ltd., priority 2024, dated 2025).
